Laboratory results published in a protein production outcome set (Wang et al. 2014).

Assay: label from the status in PepcDB records

Sequence	protein production
MTAKPTIAFSHLGCEKNRIDTEHMIGLLAEAGYGIDANEALADVVVVNTCSFIQAAREESVRTLVELAESGKKIVIAGCLAQHFQDQLLAELPEAIALVGTGDYHRIVDVLQRTESGERVNAISQEPSFIADENLPRYRTTTSAVAYLRVAEGCDYRCAFCIIPHLRGKQRSRSIESIVAEAKQLAAEGVQELVLISQITTNYGLDRYGKPMLAELLRQLGQVDVPWIRIHYAYPTGLTPEVIAAIRETHNVLPYLDLPLQHSHPEILKAMNRPWQGNVNDRIIEKLKEALPDAVLRTTFIAGFPGETEEHFRHLQQFIQRHEFDHVGVFAFSPEEGTAAIDLPNPVPDDVKEARRDALMATQQPIAERRNRAQIGRLVDVLIEQEHPSTGLKIGRSARFAPEVDGVVYVQGDAALGQLVTVRITDADIYDLHGEVASAADLFQASRQPSLA	failed
MVSSSLSLTTLAGGTLLLKGSPSTLFYKHGRTLFIVDPGHGRKRAKQISKAAEKLGGEAVAIITHFHSDHLSTLYQGFQPSTALAPVKDLAMVQDRVMRLHYTFGYPFTGAEDYLLFKAEDVDNVEPLEAERIKPLRLVPLPGHTPGQTGVETPDGVLYAADSIFGERVLQTYAVPYHSNPCQALETLTRLRDRVNRLEVIVPSHGKPVKGEEAERLLEMNIERLEDAWTALTEELSRAPASVGLLASTLMKRYGAEATPTLAILVETAVRGYIGCHGAELEPILESGVVKWRVRRR	failed
MATTLLSPTRFVHGLRFDNLRGDIFGGITAAIVALPLALAFGVASGAGPIAGLYGAICTGFFAALFGGTPAQISGPTGPMTVVMASTFANLTASNPENGWAMALTVVMFGGIFQVVLGLLGLGKYITFMPYTVISGFMSGIGVIIVILQIAPLLGHQTAPGVVPSLQAIPTYLNDVNFAALGLGLIALAIVFFSPPRLNRILPAPLIALVLGTIISMIFFGNVSLPRIGEIPSGLPSLHLPYLSWGSLQQMLLYSIMLAVLGSLDSLLTSLVADNISRSHHDSDRELVGQGIGNLVSGLCGGLPGAGATMRTVININSGGKTPIAGMIHALILLMIVLKAGQLTEPIPHAVLAGILIKVGIDIVDWSFLKRAHQLSTKGAGLMYLVLGLTVFVDLITAVAVGVFVANLFTVKNLTDLQLESIKSVTRADGEDWLLEEEQQILRAANGRIFMFHLSGPMSFGAAKSIARRLAIVENYDVLILDLATVPRLGVTALLAIETMLKDALAKQREVFLVGAKGQVQARLQRLPVLAQLSPHHRLESRLLALQMAAVCINVD	failed
MNTDLTLVIMAAGLGSRFGGDKQLASLGPSGEPMLVLSILSAIRSGFQRAVLVIRPELEAELTGILTQFLPANFEYHFCYQSLSDLPQDAKLADLSHRLKPWGTAHALWCARDWVKGPMAVINADDFYGDSAFASLAKGLTARPNDWMMVAYPIELTLSEHGGVNRGLCQVAQGQLRSVAEWLNIQAQDDGFVGEGPNGLAKLPLQSLVSMTCWGFSPSIFNVIKQQLTAFIEQQGQLPKSECYLPAVVQAAIEQGVPVYVDVASEPWLGVTYPQDTVWVKQKLMELLGDKTHLEHHHHHH	failed
MSLSGPRVERLEVSAYTVPTDYPESDGTLQWDSTTMILVEAHGGGRKGLGYTYGDVSVGRFVESKLAGVAEGSDALSPPAVWARMQAAIRNAGRPGVGAMAVSAVDIALWDLKARLLGLPLADALPRFHAEVPVYGSGGFTSYPLRRLQEQLGGWAAAGIPRVKMKVGREPEKDPERVRAAREAIGESVELMVDANGAYTRKQALYWAGAFAREAGISYLEEPVSSEDREGLRLLRDRGPGGVAIAAGEYEWTLPQLHDLAGCVDILQADVTRCGGITGLLRVDGICRGHQIPFSAHCAPAVSAHACCAVESLLHLEYFHDHARVERLLFDGTLDPEGGSLRPDPDRPGLGLELKRSEAGKYAAEGHHHHHH	not failed
TKTTTQGAKSGVFDTVDEAVQAAVIAQNCYKEKSLEERRNVVKAIREALYPEIETIATRAVAETGMGNVTDKILKNTLAIEKTPGVEDLYTEVATGDNGMTLYELSPYGVIGAVAPSTNPTETLICNSIGMLAAGNAVFYSPHPGAKNISLWLIEKLNTIVRDSCGIDNLIVTVAKPSIQAAQEMMNHPKVPLLVITGGPGVVLQAMQSGKKVIGAGAGNPPSIVDETANIEKAAADIVDGASFDHNILCIAE	not failed
MGSVSTGNAGSGTVGTSTTSRADVMTFQPSSLPVSYVGETYNVQVGVTGGVGPYGYRLTAGTLPPGLKFAGGALSGTPTKAGSYSFAIQATDANLSTRVQEYTMNVDALPPLALKPTLPPGEIRGETRIPVTIQAPRAVRAARLSWDLGKDVQVTRVQPADAGSVVFWQQRGSVLTVDLGFRTVPRPDARIALITVKPAKAVTLKADALGYEARDGSGKMLVDKKRPGSEPVKPAEQPGDPKVDPKAADQKATDQKATDPKTVDPKTVTPADTVEGGPLPSPALPTPSLPPTLPPVTTPPANTPPVPTPTPPANQPAPAPAPQPAPAPQPTPPSGTGGALEHHHHHH	failed
SERRLGVRAWVKENRGSFQPPVCNKLMHQEQLKVMFIGGPNTRKDYHIEEGEEVFYQLEGDMVLRVLEQGKHRDVVIRQGEIFLLPARVPHSPQRFANTVGLVVERRRLETELDGLRYYVGDTMDVLFEKWFYCKDLGTQLAPIIQEFFSSEQYRTGKPIPDQLLKEPPFPLSTRSIMEPMSLDAWLDSHHRELQAGTPLSLFGDTYETQVIAYGQGSSEGLRQNVDVWLWQLEGSSVVTMGGRRLSLAPDDSLLVLAGTSYAWERTQGSVALSVTQDPACKKPLG	not failed
MMEQKIMEVLRRMQAILDEACLRDLKTVLQVVFEGCEISQEKRELRVPDRSWAIDLEEYLMSKALEGKSPGTVDRYRYELQRLLSYVNKAVRDITEGDISGYMRAYKAIRQVSNQTLKNVRAVYSSFFAWLRDRDRIRRNPMALVEAIKVEQKIRKPYTDEEREMLLRNCSTLRDKAMMEFFYSTAVRVSELVTLNRDDIRFTSKDLIVFGKGSKERRVYLNDRTNLYMKEYLDSRTDGSPALIVSIRRPHSRLSKTGIEDIIRRTGQRAGVEKAHPHRFRRTSLTNALNRGMPLQEAMVMAGHAKPETTMGYCTVDQEGVKYHHQKYLSA	failed
DDGVVAAAAFDADRTDPDTLCVRYITVRQDRQGDRLGARLLRFVRERATERGFEHVSIGVNNPFSYQAAYRAGFCFSG	failed
MLETLYAFFDLGQFSQSPINGSHNPGLVILSYCVALLASYTAILTLERVQIYQAKVARYSWLIVSAVISGVGVWSMHFIGMLAFELHLPMSHSVLLTLISVVPAIVGSFIAMKIQMSLSSVRATLIAGTVLGAGIGLMHYTGMAAMEMSAHLRYDPLWFVLSVFVAVSLGIIALLAYRHYKKSERTSWFRRRSAQIVVAAIIALAISGMHYTAMIAANFYPTRAPDAVFSGHGNWLAYVVGIGSCLTAIMAIIASQIDRRLQQQQKLAQMSAEQLYEVISAIDDGLLLFDEHNRVLLANQAFTRLTGDDLERIKGSKLNIEDYIERSDKLLENIKNSLARRVAWQGKVNVRKRSGTTFPVRLSISKVRYNQQKERHFVATVTDISAEVESSERIRYLAYNDALTGLANRRSLLDHLQDQLATYKEAGQNGALILCDIDKFKILNNTLGSDMGDLLLKRVAERLQSSTKANSFLARLSANEFAVVLTGLERGNSVNIKQQLLTRIYQLLDQLQQPYQLNSYTHLCSFSAGASLFDDSESNAETLMTQSGLALSHSKRKGTGEVSLFRQEFADAVSKRVKLEEQLRNAIKQNEFELYLQPQVNIESKPTGAEALIRWKQSDGRFVSPADFIPLAEETGLIVPLGYWITERACQILQQWQQSPEKAKMQLSINVSAKQFQQPEFVEQVQLLVEKYEIRPHRLKLELTESLLMDDISSVTNKIKQLKRLGIEFALDDFGTGYSSLSYLMQIPFDTLKIDVSFVRNMLDSMEKAQIVYTIIQLGESLKLNIVAEGVETEEQFNYLARLNCDTFQGYLFSKPVPESEFLADKTAP	failed
EKRKVLIPIDFSNYSLKACQFGFSFANAINSEVVLLHAYFSPIYVPTIPYGTDNFNFQIEREESVKSMIETVHNELNKLSDTIKKKVESGEFPNIKYTCILRDGIPEEEILRYAKEYNPQIIIMGTRGRSQKDIDLIGSVTAEVIERSKSFVYAIPEHTPLK	failed
MTYLQTTADFYAEVAQTPEVGLCCVQSSPLQLPGLVIPAVMQEMNYGCGSTVHPNELGNKSKVLYVGVGGGLEALQFAYFCRQPGAVIAVDPVEAMRQAAQRNLQLAAEKNDWFSVDFVDIRAGDAFTLPVPDNSVDVVAQNCLFNIFEPEDLSRALKEAYRVLKPHGRLIMSDPIAARPIPQHLRQDERLRAMCLSGALTYAEYIQHLIDTGFGQIEIRARRPYRLLDSVTYKLDENLLLESLDSVSFKVPIPSDGACVFTGKTAIYAGSDPLFDDQAGHILQQGVPSAVCDKTALNLGSTYPNKILITDSTWYYDGGGCC	failed
DFELLHKLGGGNYGDVHLASVKDCNFVCALKRLSIKKLADFDIATQLRREIEIAFNTRHKYLLRTYAYFFDETDIYLIMEPCSNGMLYTELNRVKCFAPPTAARYVAQLAEALLYLHQHHILHRDIKPENILLDHNNNIKLADFGWSVHDPDNRRKTSCGTPEYFPPEIVGRQAYDTSADLWCLGIFCYELLVGKTPFVGKDTDQICKNIHSMHFKIPENIPSEAKDLIANLLLRDGSRRLALHRVVNHQFLLKYYYLPNNL	not failed
MRQIGNRRVAPLAILAAVLMGGPTNASTGEFKVAYLYNLSDFTGTIPYSLAKIALDATARETYVISGETVKVFNNSGMEVYRFTNTMESGIVYDAAIDEQGRILVLAYNNGTPSLLLCNYRAEPIKPIEFKGLPEKLAAFKPNRLMLRDGKICLVSLGSMMVVMLDPEGNYVKHIDLAEASSVTEEDRLNTGIGAVAFDSDGSVLFTSPVTGKVFRISANGTVESFGKRGSAPGKFGVPTGIAVDGLGNYYISDKLRCAILVFDRQFKFIYEFGGRGDAPGSLVGPDDLAIDAEGKLYVGQLGNRGVSVFKVTHD	failed
MQDFRFVAAAIVFIFTLILVTVRPWKIDIGYGALIGAFVSIILGISTPADVIKVWNIIWNPTFTFVAIIAMSLVLDYAGFFEYYAIRISKFAGGNGIKLFVFIVILGSLTAAFFANDGAVLVLTPIVLSIMDMTGIGKKGAVAYIMAIGFISDSSSLPFVISNLVNIIGSGYFGISFASYAKVMVIPDIISVVSSLGLLLLYYRKDIPRIYQVESLPNPKNVIKDPLIFKLAFPFMAIVVLAYFLTSFDLVPVSFVAVPAATILIVVARYNHRINTRSIIAEAPWQVVVFSLGMYIVVYGFGDNGLTSVLVHVTKSILLLGNPLSTVLAGLLFGAMAGSMNNLPSVMMGALTISHLNQNSFLIYANVIGNDIGPKFTPIGSLATLLWIYTLQRKHGVQITPIYYMKVGFIIAFPVLVLTLLSLYATIYFGL	failed
MFKIDLFSNKKAVEGFILFQLTIVMISILISYKMAYSMTHIIEQNIIFNIIFGIVGFAVVYFLHEFIHNIMFRVMSKGNKPTYRIKSGLITTHMPNVYFKKWQYMTIMLAPLVIITSVLLVIFSYFAYSSIIFIACFHIGYCVMDMYFLTGLLNKHVQLIEDTEEGIKFYTQAPAPAQEFRTELKS	failed
MNNLNFTVIIPLFNKAEHILRTLQSVEWQKYPAAEIIVIDDGSTDEGPALVEKANIKNVKLVHQENQGVSAARNNGVALASHEYVAFLDADDEWLPLFLDEVARLIVKFPQAQFFGTRYQIVEPENNYCDAKIKLENINPEGVILDNYFDIASQGDLPFTMSSMVIERSLFQSIGGFPLNEPIGEDQDLFCRVALNTSIAYSPNIHSLYHKDAQNQASRINIPSTECGFSVRITKEARKDTKRKSAKYMLKYSATHLCHLAKLNIGNGHFSQARKLLSDPRCKLKPKHLIGLYGLSWIQQTSQWLANIIDYKQI	failed
MGNNSESKGSASDSKGAETFTYKAENGNVKIPKHPKRVVVMADGYYGYFKTLGINVVGAPENVFKNPYYKGKTNGVENIGDGTSVEKVIDLNPDLIIVWTTQGADIKKLEKIAPTVAVKYDKLDNIEQLKEFAKMTGTEDKAEKWLAKWDKKVAAAKTKIKKAVGDKTISIMQTNGKDIYVFGKDFGRGGSIIYKDLGLQATKLTKEKAIDQGPGYTSISLEKLPDFAGDYIFAGPWQSGGDDGGVFESSIWKNLNAVKNGHVYKMDPIGFYFTDPISLEGQLEFITESLTKLEHHHHHH	not failed
